Test results published in PMC3553564.

B1: dsDNA (dsDNA)
DNA 1: CCTTACAGCAAA
DNA 2: TTTGCTGTAAGG
B2: ssDNA (ssDNA)
DNA: CCTTACAGCAAA
B3: ssRNA (ssRNA)
RNA: AUCGGGCA
B4: dsRNA (dsRNA)
RNA 1: AUCGGGCA
RNA 2: UGCCCGAU

How the values were obtained:
Experiment in all cases: fluorescence polarization
PWI K734A+R735A+K736A = PWI K734A+R735A+K736A (Homo sapiens, UniProt P49756 734-843, K734A;R735A;K736A)
PWI K744A = PWI K744A (Homo sapiens, UniProt P49756 734-843, K744A)
[1] = biological target: RBM25 PWI domain + flanking basic region WT (Homo sapiens, UniProt P49756 734-843)
PWI R769A+R770A = PWI R769A+R770A (Homo sapiens, UniProt P49756 734-843, R769A;R770A)
PWI ΔHb = PWI ΔHb (Homo sapiens, UniProt P49756 746-843, del734-745)
PWI K777A+K778A = PWI K777A+K778A (Homo sapiens, UniProt P49756 734-843, K777A;K778A)
PWI K837A+K838A = PWI K837A+K838A (Homo sapiens, UniProt P49756 734-843, K837A;K838A)
PWI H737A+K739A = PWI H737A+K739A (Homo sapiens, UniProt P49756 734-843, H737A;K739A)
PWI K825A+R828A = PWI K825A+R828A (Homo sapiens, UniProt P49756 734-843, K825A;R828A)
Sequence of PWI K825A+R828A (P49756 734-843 K825A/R828A): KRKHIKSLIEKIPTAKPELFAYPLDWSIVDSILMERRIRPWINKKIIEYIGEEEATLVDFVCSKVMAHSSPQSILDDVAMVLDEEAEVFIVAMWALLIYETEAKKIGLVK

Sequence of RBM25 PWI domain + flanking basic region WT (P49756 734-843): as the sequence (P49756 734-843 K825A/R828A) above, with A92K, A95R counted along it
Sequence of PWI R769A+R770A (P49756 734-843 R769A/R770A): as the sequence (P49756 734-843 K825A/R828A) above, with R36A, R37A, A92K, A95R counted along it
Sequence of PWI K734A+R735A+K736A (P49756 734-843 K734A/R735A/K736A): as the sequence (P49756 734-843 K825A/R828A) above, with K1A, R2A, K3A, A92K, A95R counted along it
Sequence of PWI ΔHb (P49756 746-843, stated change not applied): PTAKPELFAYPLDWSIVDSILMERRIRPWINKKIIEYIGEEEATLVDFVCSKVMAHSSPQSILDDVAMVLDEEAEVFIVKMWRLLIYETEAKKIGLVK
Sequence of PWI H737A+K739A (P49756 734-843 H737A/K739A): as the sequence (P49756 734-843 K825A/R828A) above, with H4A, K6A, A92K, A95R counted along it
Sequence of PWI K837A+K838A (P49756 734-843 K837A/K838A): as the sequence (P49756 734-843 K825A/R828A) above, with A92K, A95R, K104A, K105A counted along it
Sequence of PWI K777A+K778A (P49756 734-843 K777A/K778A): as the sequence (P49756 734-843 K825A/R828A) above, with K44A, K45A, A92K, A95R counted along it
Sequence of PWI K744A (P49756 734-843 K744A): as the sequence (P49756 734-843 K825A/R828A) above, with K11A, A92K, A95R counted along it

Binder	Kd (PWI K734A+R735A+K736A)	Kd (PWI K744A)	Kd [1]	Kd (PWI R769A+R770A)	binding result (PWI ΔHb)	Kd (PWI K777A+K778A)	Kd (PWI K837A+K838A)	Kd (PWI H737A+K739A)	Kd (PWI K825A+R828A)
B1	~194 µM	~23.6 µM	~6.7 µM	~46 µM	no binding	~160 µM	~40.4 µM	~57 µM	~106 µM
B2			~4.4 µM						
B3	183 ± 44.7 µM	19.9 ± 4.4 µM	11.3 ± 1 µM	32.1 ± 1.4 µM	no binding	156 ± 29.4 µM	15.7 ± 2.1 µM	61.6 ± 9.3 µM	106 ± 17.3 µM
B4			~8.2 µM						
